Test results taken from the supplement of paper PMC10126150.
± gives the standard deviation of the averaged measurements.

Tested on: ATP
Assay: switch fluorescence ratio, 500 uM ATP over buffer (Cy3 cluster intensity, sum of 5 cycles each) (fold (ratio)); higher = stronger signal-on switching upon ATP binding; sequences stand for … in TCGTCGGCAGCGTCAGATGTGTATAAGAGACAGTTTTTTTTTTTTTTTTTTTTTTTTT…TC
Settings: aptamer strand: ATP DNA aptamer (quencher-CACCTGGGGGAGTATTGCGGAGGAAGG + anchor), 100 nM annealed; ATP concentration: 500 uM
Method in brief: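 Imaging in selection buffer was followed by imaging after 15 min with 500 uM ATP at 22 °C, for Cy3-labelled switching-strand clusters annealed to 100 nM quencher-labelled ATP aptamer on a modified Illumina MiSeq flow-cell. Five of these buffer/ATP cycles ran, separated by NaOH stripping and re-annealing. The fluorescence ratio per cluster is summed target-cycle over summed buffer-cycle Cy3 intensity, averaged per switch-domain sequence; clusters outside 100-1000 RFU were removed.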
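Further: ATP exposure 15 min at 22 °C before imaging.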

| Sequence | switch fluorescence ratio |
| --- | --- |
| GCGTTGAGGG | 0.952 ± 0.079 |
| GCGTTGATGT | 0.981 ± 0.017 |
| GCGTTGGG | 1.02 ± 0.029 |
| GCGTTGGGAG | 1.018 ± 0.0031 |
| GCGTTGGGCT | 0.949 ± 0.016 |
| GCGTTGGGGA | 1.02 ± 0.015 |
| GCGTTGGGGT | 1.01 ± 0.019 |
| GCGTTTAAAG | 0.994 ± 0.023 |
| GCGTTTCTAG | 0.992 ± 0.028 |
| GCGTTTGAAA | 1.01 ± 0.013 |
| GCGTTTTAGC | 0.995 ± 0.041 |
| GCGTTTTCGA | 1 ± 0.021 |
| GCTAAAAAAT | 0.98 ± 0.013 |
| GCTAAAAGGA | 0.975 ± 0.021 |
| GCTAAAATGG | 0.9916 ± 0.0076 |
| GCTAAATTAT | 0.963 ± 0.021 |
| GCTAACACGG | 1.048 ± 0.0053 |
| GCTAACTTTT | 1.03 ± 0.021 |
| GCTAAGTATG | 1.04 ± 0.043 |
| GCTAATAGTT | 1.01 ± 0.06 |
| GCTAATGTGC | 1.02 ± 0.018 |
| GCTACCTGGT | 1.02 ± 0.013 |
| GCTACGCAGC | 3.05 ± 1.8 |
| GCTACGGTAT | 1.13 ± 0.07 |
| GCTAGAATAT | 1.02 ± 0.014 |

| Sequence | switch fluorescence ratio |
| --- | --- |
| GCTAGAATGT | 1 ± 0.019 |
| GCTAGAGACG | 1.06 ± 0.054 |
| GCTAGATGGG | 1.01 ± 0.034 |
| GCTAGCGGAC | 1.14 ± 0.025 |
| GCTAGGGGA | 1.02 ± 0.011 |
| GCTAGGGGGA | 1.03 ± 0.05 |
| GCTAGTCTCA | 1.01 ± 0.028 |
| GCTAGTTGGT | 0.99 ± 0.017 |
| GCTAGTTGTA | 0.9995 ± 0.0074 |
| GCTAGTTTTT | 1 ± 0.022 |
| GCTATAAGCC | 1.05 ± 0.039 |
| GCTATATCTA | 1.02 ± 0.022 |
| GCTATATGTA | 1 ± 0.031 |
| GCTATCAGCG | 0.995 ± 0.023 |
| GCTATCTTTT | 1.02 ± 0.04 |
| GCTATGGGCG | 1.03 ± 0.033 |
| GCTATGTTTG | 0.9757 ± 0.0064 |
| GCTATTAAAG | 1 ± 0.026 |
| GCTATTATTT | 0.9845 ± 0.0027 |
| GCTATTGTGT | 0.9858 ± 0.0036 |
| GCTATTGTTT | 0.9633 ± 0.0082 |
| GCTATTTTCG | 0.99 ± 0.023 |
| GCTATTTTTT | 0.987 ± 0.022 |
| GCTCAAATGG | 1.04 ± 0.013 |
| GCTCAAGCGA | 1.464 ± 0.0035 |

| Sequence | switch fluorescence ratio |
| --- | --- |
| GCTCAATCTT | 0.967 ± 0.01 |
| GCTCAATTTA | 0.9689 ± 0.0083 |
| GCTCATTGGC | 0.992 ± 0.027 |
| GCTCCTCGCT | 1.23 ± 0.081 |
| GCTCCTTAGG | 1.12 ± 0.048 |
| GCTCGACGGC | 1.017 ± 0.0018 |
| GCTCGAGGGT | 1 ± 0.03 |
| GCTCGAGTGG | 1.03 ± 0.053 |
| GCTCGGTTTG | 0.97 ± 0.045 |
| GCTCGTACGA | 1.03 ± 0.027 |
| GCTCGTTATA | 1.02 ± 0.019 |
| GCTCGTTTAG | 1.01 ± 0.02 |
| GCTCTACGGT | 1.013 ± 0.0099 |
| GCTCTCCTGT | 1.02 ± 0.023 |
| GCTGACGGGT | 0.976 ± 0.018 |
| GCTGACTTGT | 0.977 ± 0.016 |
| GCTGATTGTG | 1 ± 0.023 |
| GCTGATTTCG | 1 ± 0.029 |
| GCTGCCGGGG | 0.971 ± 0.046 |
| GCTGCTTAGG | 0.974 ± 0.018 |
| GCTGGAACCG | 1.08 ± 0.022 |
| GCTGGAGGTG | 1.03 ± 0.039 |
| GCTGGCGGAT | 1.01 ± 0.041 |
| GCTGGCTCTT | 1.01 ± 0.014 |
| GCTGGGACAG | 0.999 ± 0.032 |

| Sequence | switch fluorescence ratio |
| --- | --- |
| GCTGGGAGAG | 0.989 ± 0.042 |
| GCTGGGATTA | 0.984 ± 0.012 |
| GCTGGGCACA | 0.967 ± 0.03 |
| GCTGGGGACG | 0.938 ± 0.084 |
| GCTGGGGGGC | 0.988 ± 0.033 |
| GCTGGGGTAA | 1.02 ± 0.021 |
| GCTGGGGTGC | 1 ± 0.09 |
| GCTGGGTAAT | 1.02 ± 0.044 |
| GCTGGGTCGA | 1.03 ± 0.01 |
| GCTGGGTGAT | 1.018 ± 0.0069 |
| GCTGGTAAAG | 0.972 ± 0.017 |
| GCTGGTAAGC | 0.9696 ± 0.0029 |
| GCTGGTTAGT | 1 ± 0.014 |
| GCTGTAGGAG | 0.9843 ± 0.0072 |
| GCTGTAGGCG | 0.988 ± 0.015 |
| GCTGTATGCA | 0.976 ± 0.012 |
| GCTGTGAGGT | 0.979 ± 0.0018 |
| GCTGTGCGCA | 1.02 ± 0.019 |
| GCTGTGTAGA | 1.073 ± 0.0021 |
| GCTGTGTTGG | 1.02 ± 0.013 |
| GCTGTTCACG | 1.01 ± 0.014 |
| GCTGTTGGCA | 1.01 ± 0.025 |
| GCTGTTTCAG | 0.986 ± 0.016 |
| GCTGTTTGGG | 0.997 ± 0.014 |
| GCTGTTTTCA | 0.984 ± 0.048 |
